Data from paper PMC4526739.

What was measured:
Experiment in all cases: EMSA
Nab2;Tbp = target: T1, Nab2;Tbp (Saccharomyces cerevisiae;Saccharomyces …, UniProt P32505;P13393 1-525;1-240, |)
T1 sequence 1: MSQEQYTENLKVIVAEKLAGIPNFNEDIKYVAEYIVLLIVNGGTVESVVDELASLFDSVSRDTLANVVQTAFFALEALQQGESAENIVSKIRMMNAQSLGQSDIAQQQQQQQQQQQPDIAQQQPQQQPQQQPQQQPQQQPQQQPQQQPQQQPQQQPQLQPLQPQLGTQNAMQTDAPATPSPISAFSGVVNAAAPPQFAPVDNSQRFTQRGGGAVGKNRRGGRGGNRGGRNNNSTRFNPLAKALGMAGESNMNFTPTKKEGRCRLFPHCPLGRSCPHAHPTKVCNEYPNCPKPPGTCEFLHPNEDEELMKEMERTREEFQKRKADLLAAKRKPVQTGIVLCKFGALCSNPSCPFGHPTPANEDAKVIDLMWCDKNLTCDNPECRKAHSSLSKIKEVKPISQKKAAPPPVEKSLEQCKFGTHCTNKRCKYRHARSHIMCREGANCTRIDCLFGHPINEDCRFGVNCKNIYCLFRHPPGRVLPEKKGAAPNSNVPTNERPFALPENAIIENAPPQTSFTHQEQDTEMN
T1 sequence 2: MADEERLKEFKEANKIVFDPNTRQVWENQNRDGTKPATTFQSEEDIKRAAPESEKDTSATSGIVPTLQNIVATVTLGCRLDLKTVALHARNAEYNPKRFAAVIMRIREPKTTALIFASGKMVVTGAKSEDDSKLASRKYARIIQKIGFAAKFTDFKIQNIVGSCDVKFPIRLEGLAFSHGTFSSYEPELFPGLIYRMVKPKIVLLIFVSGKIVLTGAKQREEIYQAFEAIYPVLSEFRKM

Nab2;Tbp;Brf1 = target: T2, Nab2;Tbp;Brf1 (Saccharomyces cerevisiae;Saccharomyces …, UniProt P32505;P13393;P29056 1-525;1-240;1-596, ||)
T2 sequence 1: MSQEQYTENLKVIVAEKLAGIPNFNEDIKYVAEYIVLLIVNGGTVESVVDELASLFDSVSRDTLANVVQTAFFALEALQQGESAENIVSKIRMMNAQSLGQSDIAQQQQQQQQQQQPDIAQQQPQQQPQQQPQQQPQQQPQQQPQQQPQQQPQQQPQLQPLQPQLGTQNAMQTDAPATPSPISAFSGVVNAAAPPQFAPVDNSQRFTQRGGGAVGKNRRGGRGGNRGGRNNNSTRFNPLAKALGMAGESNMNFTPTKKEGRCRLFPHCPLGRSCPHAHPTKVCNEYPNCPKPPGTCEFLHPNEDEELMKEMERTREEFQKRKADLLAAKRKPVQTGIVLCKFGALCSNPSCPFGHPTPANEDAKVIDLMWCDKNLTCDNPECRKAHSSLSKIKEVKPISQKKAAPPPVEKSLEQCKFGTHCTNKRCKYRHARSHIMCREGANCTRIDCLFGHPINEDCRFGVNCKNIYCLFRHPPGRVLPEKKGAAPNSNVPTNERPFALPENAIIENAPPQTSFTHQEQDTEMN
T2 sequence 2: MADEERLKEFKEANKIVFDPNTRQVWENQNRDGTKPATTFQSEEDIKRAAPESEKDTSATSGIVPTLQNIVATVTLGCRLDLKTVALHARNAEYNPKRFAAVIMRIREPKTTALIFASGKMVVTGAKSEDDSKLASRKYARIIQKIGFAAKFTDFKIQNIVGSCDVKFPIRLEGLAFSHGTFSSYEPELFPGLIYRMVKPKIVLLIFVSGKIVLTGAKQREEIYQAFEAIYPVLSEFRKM
T2 sequence 3: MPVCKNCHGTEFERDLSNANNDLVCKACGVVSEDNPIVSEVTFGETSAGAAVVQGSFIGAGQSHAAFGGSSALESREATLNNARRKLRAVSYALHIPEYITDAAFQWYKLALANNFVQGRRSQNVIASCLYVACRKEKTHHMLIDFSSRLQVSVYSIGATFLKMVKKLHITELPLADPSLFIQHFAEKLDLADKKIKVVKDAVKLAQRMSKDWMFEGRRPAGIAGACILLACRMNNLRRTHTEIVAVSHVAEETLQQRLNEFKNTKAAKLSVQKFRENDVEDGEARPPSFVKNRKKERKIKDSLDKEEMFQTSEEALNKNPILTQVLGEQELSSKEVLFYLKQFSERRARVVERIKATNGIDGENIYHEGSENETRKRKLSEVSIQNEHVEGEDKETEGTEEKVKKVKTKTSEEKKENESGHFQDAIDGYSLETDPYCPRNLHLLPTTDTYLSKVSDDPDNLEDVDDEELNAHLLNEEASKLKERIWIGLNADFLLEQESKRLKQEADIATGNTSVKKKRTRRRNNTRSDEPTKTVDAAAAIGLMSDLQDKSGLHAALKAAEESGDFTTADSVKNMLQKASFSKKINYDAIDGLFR

Nab2;Tbp;Brf1;Bdp1 = Nab2;Tbp;Brf1;Bdp1 (Saccharomyces cerevisiae;Saccharomyces …, UniProt P32505;P13393;P29056;P46678 1-525;1-240;1-596;1-594, |||)

Measured: binding result

Nab2;Tbp;Brf1;Bdp1, sequence (P46678 whole entry, one chain of several): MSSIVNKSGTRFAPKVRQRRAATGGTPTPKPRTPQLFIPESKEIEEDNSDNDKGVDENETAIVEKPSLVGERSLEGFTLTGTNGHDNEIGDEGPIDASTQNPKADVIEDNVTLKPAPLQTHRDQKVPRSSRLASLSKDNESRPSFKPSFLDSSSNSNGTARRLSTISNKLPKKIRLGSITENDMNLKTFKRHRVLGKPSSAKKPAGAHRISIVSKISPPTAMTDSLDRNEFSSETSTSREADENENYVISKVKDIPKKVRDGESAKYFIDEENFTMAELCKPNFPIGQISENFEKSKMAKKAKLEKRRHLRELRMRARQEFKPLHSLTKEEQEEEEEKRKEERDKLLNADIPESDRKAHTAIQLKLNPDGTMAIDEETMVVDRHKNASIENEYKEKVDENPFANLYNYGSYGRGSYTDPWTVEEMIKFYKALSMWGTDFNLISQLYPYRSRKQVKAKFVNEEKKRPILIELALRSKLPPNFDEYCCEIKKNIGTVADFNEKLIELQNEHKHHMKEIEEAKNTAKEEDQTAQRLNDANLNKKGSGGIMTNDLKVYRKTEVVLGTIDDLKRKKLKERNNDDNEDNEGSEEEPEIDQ

B1: TA-30-B6 (dsDNA)
DNA 1: GCTGAAATCTCTTTTTCAATTGCTCCGGTGTATAAAGCCGCGGTCCCTTACTCTTTCTTCAACAATTAAATACTC
DNA 2: GAGTATTTAATTGTTGAAGAAAGAGTAAGGGACCGCCCCTTTATTGACCGGAGCAATTGAAAAAGAGATTTCAGC
binds: all assays above
